This note sets out measurements from the DeepSol protein solubility set.

The data set can be described thus: soluble on expression in E. coli; label from the status in PepcDB or PDB records.
In the case of “MGSDKIHHHHHHMPFANPQEAIDFLDKHPQVQHVEVFIIDPNGIPRGKLLHRQEVLSMYRHGRPLPSTILGLTVQGDDVEDTGLVWEVGDADCLAFPIEGGLLMQPWRAQPTAQVHLTMHPEAGMPAAVADPRLVLSKVIDSLQADGFYPVMAAELEFFLLDQRFDANGRPQPAMQSDGHRPHQTQVYGILELERLQPFLDDLYHACEVQGIPARTAISEYAPGQVEITLEHRFDALQAMDEAVRYKRLVKGVAAKHGMQACFMAKPFGELAGSGMHMHVSLADADGNNRFASDNPEGTPELTQSIAGMMATLEDAQLLFCPNANSFRRFQSASYAPIAKTWGVNNRTVSFRVPGGPAPSRHVEHRICGADANPYLAAAAILAACHHGIRNQLSPGQAIVGNGYEGKHQTLPTDWLSALTNFERSEWMKSVLGEDFHRIYGRIKRAEYQEFMAEVGQQDWHWYLTHA”, the “soluble on expression in E. coli” value was “not soluble”.

In the case of “MGLIPPKWLERMVEAYRDPSLERAVYGEVLTRSDIERLLSETPLHPMAAAADYYARVIKKGVGSYIVNIYLAYTNVCVTRCTFCDFYVPPERRSSGYTHPPEHLGRVAGLARKRLGVREVHMVGGNDPELPLEYYEEAIREIKRVAPGVVLKAFTAEEIGFIAKATGNTPKEVLARFREAGLDALPGGGAEVLSEEVRKRIAPLKISSDEYLEIHRLAHSMGIRSNITLLYAHIEEPRHVAEHLYRIRRLQEETGGFISFIPIRFNPGKTPLSRHPEYVKKGDRGGLYDLRIVAASRLALLGAIDNIMAYWVSMGEKLAQAALSHGANDIGGTFYNESVISAASSLRKRKGMSPARLVFNIATAGWTPMERDTFYNYYPPRAEPPRLPWMQG”, the “soluble on expression in E. coli” value is “not soluble”.

As for “MGSDKIHHHHHHVSDSPLPDSETSAAAEFKVDNCALVLEGGGLRAIYTAGVLDAFLAAGIHFQYLVGVSAGAIYPASYLSRQMGRNLTIQQNFLADKRYMGLKHLLRTGNYVNTDFTYRRMAHELVPYDFDAFASSEAEFKVGAFNCLTGETDFFGMADFADHDTFLEVLIASSSLPFISKPTFIDGTPYLDGGIGAPIPLAQAREDGYKRQVVILTQEQDYRKSAFKAKWLAKRLYRRYPKVASALLARHQVYNQALDDLTKAQADGSALVLQPATPMGLSRLERDVSKVEAVYRRGLSEGEAFIPSLLAFIENC”, the “soluble on expression in E. coli” value is given as “not soluble”. The result for “MELIRNLDDANMGEVYWRLYRRYISLFIENEADDAYAWRCARALDELDDAVIERLCAASLRYRAARLERLGESAEEVAPARGVLERIEPGELIVPDPEQGDEAVIHLSLNCEWDREHGMEWIVRGGEVLYVGPFHGEDPWRDFTVKEPWNYA” reads “not soluble”. In the case of “MGSSHHHHHHSSGLVPRGSHMRIGMVCPYSFDVPGGVQSHVLQLAEVLRDAGHEVSVLAPASPHVKLPDYVVSGGKAVPIPYNGSVARLRFGPATHRKVKKWIAEGDFDVLHIHEPNAPSLSMLALQAAEGPIVATFHTSTTKSLTLSVFQGILRPYHEKIIGRIAVSDLARRWQMEALGSDAVEIPNGVDVASFADAPLLDGYPREGRTVLFLGRYDEPRKGMAVLLAALPKLVARFPDVEILIVGRGDEDELREQAGDLAGHLRFLGQVDDATKASAMRSADVYCAPHLGGESFGIVLVEAMAAGTAVVASDLDAFRRVLADGDAGRLVPVDDADGMAAALIGILEDDQLRAGYVARASERVHRYDWSVVSAQIMRVYETVSGAGIKVQVSGAANRDETAGESV”, the “soluble on expression in E. coli” value is “soluble”. Turning to “MFRAGEASKRPLPGPSPPRVRSVEVARGRAGYGFTLSGQAPCVLSCVMRGSPADFVGLRAGDQILAVNEINVKKASHEDVVKLIGKCSGVLHMVIAEGVGRFESCSSDEEGGLYEGKGWLKPKLDSKALGINRAERVVEEMQSGGIFNMIFENPSLCASNSEPLKLKQRSLSESAATRFDVGHESINNPNPNMLSKEEISKVIHDDSVFSIGLESHDDFALDASILNVAMIVGYLGSIELPSTSSNLESDSLQAIRGCMRRLRAEQKIHSLVTMKIMHDCVQLSTDKAGVVAEYPAEKLAFSAVCPDDRRFFGLVTMQTNDDGSLAQEEEGALRTSCHVFMVDPDLFNHKIHQGIARRFGFECTADPDTNGCLEFPASSLPVLQFISVLYRDMGELIEGMRARAFLDGDADAHQNNSTSSNSDSGIGNFHQEEKSNRVLVVDLGGSSSRHGPGGSAWDGVGGRGAQPWGAPWTGPFCPDPEGSPPFEAAHQTDRFWDLNKHLGPASPVEVPPASLRSSVPPSKRGTVGAGCGFNQRWLPVHVLREWQCGHTSDQDSYTDSTDGWSSINCGTLPPPMSKIPADRYRVEGSFAQPPLNAPKREWSRKAFGMQSIFGPHRNVRKTKEDKKGSKFGRGTGLTQPSQRTSARRSFGRSKRFSITRSLDDLESATVSDGELTGADLKDCVSNNSLSSNASLPSVQSCRRLRERRVASWAVSFERLLQDPVGVRYFSDFLRKEFSEENILFWQACEYFNHVPAHDKKELSYRAREIFSKFLCSKATTPVNIDSQAQLADDVLRAPHPDMFKEQQLQIFNLMKFDSYTRFLKSPLYQECILAEVEGRALPDSQQVPSSPASKHSLGSDHSSVSTPKKLSGKSKSGRSLNEELGDEDSEKKRKGAFFSWSRTRSTGRSQKKREHGDHADDALHANGGLCRRESQGSVSSAGSLDLSEACRTLAPEKDKATKHCCIHLPDGTSCVVAVKAGFSIKDILSGLCERHGINGAAADLFLVGGDKPLVLHQDSSILESRDLRLEKRTLFRLDLVPINRSVGLKAKPTKPVTEVLRPVVARYGLDLSGLLVRLSGEKEPLDLGAPISSLDGQRVVLEEKDPSRGKASADKQKGVPVKQNTAVNSSSRNHSATGEERTLGKSNSIKIKGENGKNARDPRLSKREESIAKIGKKKYQKINLDEAEEFFELISKAQSNRADDQRGLLRKEDLVLPEFLRLPPGSTELTLPTPAAVAKGFSKRSATGNGRESASQPGEQWEPVQESSDSPSTSPGSASSPPGPPGTTPPGQKSPSGPFCTPQSPVSLAQEGTAQIWKRQSQEVEAGGIQTVEDEHVAELTLMGEGDISSPNSTLLPPPSTPQEVPGPSRPGTSRF”, the “soluble on expression in E. coli” value is recorded as “soluble”. In the case of “MENLQIGVVGVGVMGKSLALNFESKGYSVALYDISKEKVDETIEENRGKNLVGTHIVEEFVNSLESPRKILLMVNAGEITDKAIDSLVPHLDKGDILIDGGNTYFVDTIRRNKRLAEEGINFIGAGVSGGEEGALKGPSIMPGGQKDAYEKVKDMLENISAKVNNEPCCSYIGPNGAGHYVKMVHNGIEYGDMQLICEAYFFLKQTLDLTAEEFHEIFAEWNKGELNSYLIEITADIFKKKDEETGKPLVDVILDTAGQKGTGKWTSQSALDLGISLPIITESVFARCISALKEERVNASKVLSGPKDKTAIGVEKAELIEAVRQALYMSKICSYAQGFTQLKAASEEYNWNLDFGSISMLWRGGCIIRAAFLQNIKEAYETNTDLPNLLLDPYFKEIVESYQGGLRQIISMAVQQGIPIPAFSAAISYYDSYRTAKLPANLLQAQRDYFGAHTYKRVDKEGTFHTKWI”, the “soluble on expression in E. coli” value is listed as “not soluble”.

Take “MKAYDIEIVNDAAHAGEANHGWCFGLPPGIRPEQWPLDPDTGYPLMHGFTLLLPEDYRVHGPEIVALSFFSLAPDQNDGGPTSVDGIREMLIDPPAQPPAEAELRPFWEAGRNSHPRLHRMEDILGGAYALILLDAAEFSGAPCQPRALPAGNPLLAQTEPPQWLEAGSAASFVPDWAEDDYYLLRALGGRPAAGHQQRYPLRWTARAQDPNAGVVPSEYGDGGYQLPHYWLDGKIERDNYREHPWVEGHLPNHIGGTMRPVQGVPEMSPFYVEFEEYLGGYNFGGGNAQLDFRDMRFDWACG”: the “soluble on expression in E. coli” value is listed as “not soluble”. The result for “SLQPYEKYLKLNSQKLRADQTDTERKLWQRINRDQLLGFRFNRQKPLLSYIVDFYCAKTKLIIELDGSQHYKPDYQEKDALRDAELNSLGFTVMRFSNDEVMREIEAVVEQIYLFLENVRTD” reads “not soluble”. For “MGSDKIHHHHHHMNVTLRQLQAFIAVAELGRFHLAADHLGLTQSAISILIKDLEVALKHRLFDRHTRMVSLTTAGAEFLPQARKIMSDLEIAVANVHELASLQRGRVTIAAAIVLAATLLPPVIARFVKRYPDISVQVRDMPEEEIRSALKRNEADLGIGTVSADDPEIQASVLMRDQLTLICRSDHRFAKARQVSWASLAGEGVIGLAKDNPLRGLVDRALIASGVEVKTRYEVRFSTTAISMVAEGLGIAILPENSRQLTTNVDVRIVELVDPVISRNISILQYRQPMLSPAAAKMKEFLMGASRKLS”, the “soluble on expression in E. coli” value is reported as “not soluble”. In the case of “VGAPLAVELDRSSPVPLYFQLAQTIENAIIGGELAPGDRFENELALAKRLNLSRPTTRRAIQELVDKGLLVRKRGVGTQVVQSAVHRPVELTSLFDDLARAGQSPTTKLLDYQVSVPAEDVAAELNLQPGAEVASIRRLRSTNGEPLALMTNHIPVDLAPDPEELEAHGLYHALRARGVHIRLARQRIGAKAASKAEASLLDEKTGAPLLTMNRTAFDDSGSAVEFGSHCYRASRYYFDTTVVDR”, the “soluble on expression in E. coli” value is listed as “not soluble”.

Turning to “MGSDKIHHHHHHMNLQGLLLFDIDGVIRDVAASYRRAIQETVHHYSGWRPSVAEIDALKTEGIWNNDWDASLELLRRDQKSRNQALELPSREQLIEVFSRFYFGGDPNGDPSNWQGFIRNEPLLVNHRFFEELSSLGFAWGFVSGAEPPSARFVLEQRLGLKHPTLIAMGEAPDKPDPTGLLQLASQLAGRRLGQGVPTVAYLGDTVADVRTVINARQQQPEQQWMSLAVAPPHLHGIEQQEARNAYEDRLKQAGADHILSCTTDAIETLKNW”, the “soluble on expression in E. coli” value is given as “not soluble”. Consider “GKEHILVCISPSQGNEKVIRTAARMAEALKGKLTAVFVETPEYEESSIKEQESLRKNLRLAEQLGAQISSVYGEDISQQLAEYANVSQATKIILGRSSKRKSWLKPKLVDKLSEQIDSTDIYIIPDTQP”, for which the “soluble on expression in E. coli” value is “not soluble”. The same measure for “MAMWVFGYGSLIWKTGFPFDESLPGFIKGYRRVFHQGSTDHRGTPDFPGRTVTLEAAHEEHLEVREKQYDQKEYLDFFTDSNASEPAVAGVMVYIASPDKKSNNNYLGPAPLEDIAKQIVKAKGPSGPNRDYLFNLEEALAQLGFKDKHVTDLANQVRHILSESEELDIDATAATANNV”: “soluble”; for “MSEVQQLPIRAVGEYVILVSEPAQAGDEEVTESGLIIGKRVQGEVPELCVVHSVGPDVPEGFCEVGDLTSLPVGQIRNVPHPFVALGLKQPKEIKQKFVTCHYKAIPCLYK”: “soluble”.
